Here are results for three molecules from patent US20010016352, “NUCLEIC ACID SEQUENCES CONTROLLING LUNG CELL-SPECIFIC GENE EXPRESSION” (published 2001).

One data set has as its target T1, TTF-1 full length (UniProt P23441).
T1 sequence: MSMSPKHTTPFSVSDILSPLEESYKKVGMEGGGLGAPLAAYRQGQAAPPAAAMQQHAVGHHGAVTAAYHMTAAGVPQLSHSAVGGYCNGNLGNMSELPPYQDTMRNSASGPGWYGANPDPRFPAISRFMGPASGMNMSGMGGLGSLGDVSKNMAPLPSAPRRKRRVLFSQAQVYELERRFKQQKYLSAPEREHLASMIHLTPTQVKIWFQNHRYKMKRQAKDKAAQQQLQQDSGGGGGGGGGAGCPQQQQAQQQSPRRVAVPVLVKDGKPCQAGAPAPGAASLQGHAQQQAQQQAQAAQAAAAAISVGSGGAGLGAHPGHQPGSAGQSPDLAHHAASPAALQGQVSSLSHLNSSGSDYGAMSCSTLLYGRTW
The data set is described as follows: cell_activity. As to conditions: SV40-P F + pCMV-TTF-1 in H441, relative to SV40-P =1 (3.5 without TTF-1).

The target in data set [1] is T2, TTF-1 homeodomain (TTF-1 HD) (Rattus norvegicus, UniProt P23441 P23441:161-220).
T2 sequence: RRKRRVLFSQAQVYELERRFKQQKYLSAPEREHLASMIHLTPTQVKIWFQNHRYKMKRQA
The data set is described as follows: EMSA; two complexes A' and B'; on ice, 5 mM MgCl2. The settings on record: tags: bacterially expressed homeodomain fragment; label: 32P. Here is the method: The electrophoretic mobility shift assay (EMSA) was adapted from Hennighausen and Lubon, Meth. Enzymol., Vol. 152, pgs. 727-735 (1987). Briefly, nuclear extract (1-2 μl) and, when indicated, unlabeled oligonucleotide competitor DNA were preincubated in 20 μl Buffer C (12 mM HEPES, pH 7.9; 4 mM Tris-Cl pH 7.9; 25 mM KCl; 5 mM MgCl₂; 1 mM EDTA; 1 mM DTT; 50 ng μl⁻¹ poly[d(I-C)], Boehringer Mannheim; 0.2 mM fresh PMSF) for 10 minutes on ice. Probe (100,000 dpm) was added and incubated an additional 20 minutes on ice. For antibody supershift and interference assays, 1 μl of antibody was added after the addition of probe and incubated an additional 20 minutes on ice. TTF-1 antibody is described in Lazzaro et al., Development, Vol. 113, pgs. 1093-1104 (1991). HNF-3α, β, and γ antibodies were kindly provided by Dr. J. E. Darnell, Jr. (Lai et al., Genes and Devel., Vol. 5, pgs. 416-427 (1991)). Recombinant, bacterially expressed TTF-1 homeodomain protein (TTF-1 HD) is described in Guazzi et al., EMBO J., Vol. 9, pgs. 3631-3639 (1990). Assays were performed using 1 μl TTF-1 HD in place of nuclear extract. Bound and free probe were resolved using non-denaturing polyacrylamide gel electrophoresis. […]
(In general: A gel shift assay detects complexes by their altered migration in electrophoresis.)

Data set [2] concerns the target T2, TTF-1 homeodomain (TTF-1 HD). The data set is described as follows: EMSA. As to conditions: tags: bacterially expressed homeodomain fragment; label: 32P.

Turning to “CAGGGCTTGCCCTGGGTTAAGAGCCAGGCAGGAAGCTCTCAAGAGCATTGCTCAGAGGGGGCCTGGGTGGCCCAGGGAGGGGATGCGAGGGGAACACCCAGGC (double strand) [hSP-B -439/-331 enhancer]”, in the data set with TTF-1 full length, the activity is 8.3 fold.

B1: SPB-f1 (dsDNA)
DNA 1: AGCACCTGGAGGGCTCTTCAGAGC
DNA 2: GCTCTGAAGAGCCCTCCAGGTGCT
As for B1, the binding result in data set [1] is “binds”.

B2: Ba wild type (dsDNA)
DNA 1: CAGGGCTTGCCCTGGGTTAAGAGCCAGGCA
DNA 2: TGCCTGGCTCTTAACCCAGGGCAAGCCCTG
Take B2: the binding result in data set [2] is “binds”.
